The values that follow come from the supplement of paper PMC7125110.

± gives the standard error. Variants at the floor of the assay were thinned out. Some results are limits rather than exact numbers.

B1: glmS ribozyme (parent)
chain: AUAAAAGCGCCAGAACUACAGAAAUGUAGUUGACGAGGAGGAGGUUUAUCGAAUUUUCGGCGGAUGCCUCCAAA

Conditions in all cases: with glucosamine-6-phosphate
The variants in series [1] derive from B1. In words: self-cleavage kobs at 640 uM GlcN6P; higher = faster cleavage; RNA array. The method, boiled down:
(§1)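 Barcoded ribozyme variants were transcribed in situ on sequenced MiSeq chips by E. coli RNA polymerase. At 37 °C, a hybridised Cy3 probe tracked them while glucosamine-6-phosphate (40 μM to 10 mM) in HEPES/KCl/Mg(OAc)2 buffer flowed in and tiles were imaged over ~14 h. Per-tile medians of signals normalised to baseline and to non-cleaving reference variants were fit to one- or two-exponential decays, giving kobs. kcat and KM came from weighted Michaelis–Menten fits across concentrations.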

In series [2] the parent is B1. In words: self-cleavage kobs at 2500 uM GlcN6P; higher = faster cleavage; RNA array. The method, boiled down: as §1
In series [3] the parent is B1. Put plainly: self-cleavage kobs at 10000 uM GlcN6P; higher = faster cleavage; RNA array. The method, boiled down: as §1

For the variant G7C C34A A42C C71U, in series [1], the “self-cleavage kobs at 640 uM GlcN6P” value is less than 1e-05 s⁻¹.
U30G A33C G40C U54A A64C: the “self-cleavage kobs at 640 uM GlcN6P” value in series [1] is less than 1e-05 s⁻¹. Besides, the “self-cleavage kobs at 2500 uM GlcN6P” value in series [2] is less than 1e-05 s⁻¹.
G7A G32C G51U: the “self-cleavage kobs at 640 uM GlcN6P” value in series [1] is less than 1e-05 s⁻¹.
On to G32C G35U A52G, for which the “self-cleavage kobs at 640 uM GlcN6P” value in series [1] was less than 1e-05 s⁻¹. Besides, the “self-cleavage kobs at 2500 uM GlcN6P” value in series [2] was less than 1e-05 s⁻¹.
As for A15U C58U U69A, the “self-cleavage kobs at 640 uM GlcN6P” value in series [1] stood at 0.000113 ± 2.4e-05 s⁻¹. In series [2], the “self-cleavage kobs at 2500 uM GlcN6P” value is 0.000115 ± 3.3e-05 s⁻¹.
In the same order, the values of A15C G37A A42G are 8.69e-05 ± 3e-05 s⁻¹ and 0.000171 ± 4.6e-05 s⁻¹.
In the case of A53U G62U, the “self-cleavage kobs at 640 uM GlcN6P” value in series [1] was less than 1e-05 s⁻¹. In addition, the “self-cleavage kobs at 2500 uM GlcN6P” value in series [2] is less than 1e-05 s⁻¹. For the same variant, the “self-cleavage kobs at 10000 uM GlcN6P” value in series [3] was less than 1e-05 s⁻¹.
As for A36C U49C, in series [1], the “self-cleavage kobs at 640 uM GlcN6P” value was less than 1e-05 s⁻¹. Moreover, the “self-cleavage kobs at 10000 uM GlcN6P” value in series [3] was less than 1e-05 s⁻¹.
For C10G G40C C71G, the “self-cleavage kobs at 640 uM GlcN6P” value in series [1] is less than 1e-05 s⁻¹. For the same variant, the “self-cleavage kobs at 2500 uM GlcN6P” value in series [2] is less than 1e-05 s⁻¹.
A12C G38C U49C C50A: in series [1], the “self-cleavage kobs at 640 uM GlcN6P” value is less than 1e-05 s⁻¹. Besides, in series [2], the “self-cleavage kobs at 2500 uM GlcN6P” value is less than 1e-05 s⁻¹.
C11U G32C C50G A52U: in series [1], the “self-cleavage kobs at 640 uM GlcN6P” value was less than 1e-05 s⁻¹.
A14G U30G A64G: the “self-cleavage kobs at 640 uM GlcN6P” value in series [1] was determined as 0.00462 ± 0.0017 s⁻¹. Besides, the “self-cleavage kobs at 2500 uM GlcN6P” value in series [2] was found to be 0.00995 ± 0.0044 s⁻¹.
For the variant G35A C50U G62C C68G, in series [1], the “self-cleavage kobs at 640 uM GlcN6P” value is less than 1e-05 s⁻¹.
For the variant A12G G43A U46G U69G, the “self-cleavage kobs at 640 uM GlcN6P” value in series [1] was less than 1e-05 s⁻¹. In addition, the “self-cleavage kobs at 2500 uM GlcN6P” value in series [2] is less than 1e-05 s⁻¹.
With G29C G40A G44U A64G, the “self-cleavage kobs at 640 uM GlcN6P” value in series [1] is less than 1e-05 s⁻¹. In series [2], the “self-cleavage kobs at 2500 uM GlcN6P” value was less than 1e-05 s⁻¹.
As to C8A G29C A36C G63A, in series [1], the “self-cleavage kobs at 640 uM GlcN6P” value was less than 1e-05 s⁻¹.
As to C34U U69G C71U, the “self-cleavage kobs at 640 uM GlcN6P” value in series [1] came out at 0.000948 ± 0.00043 s⁻¹. For the same variant, in series [2], the “self-cleavage kobs at 2500 uM GlcN6P” value amounted to 6.74e-05 ± 3.3e-05 s⁻¹.
Consider A14G G35U G37C U47C, for which the “self-cleavage kobs at 640 uM GlcN6P” value in series [1] was less than 1e-05 s⁻¹.
Same read-out and setting: the result for A12U U30A G38U reads less than 1e-05 s⁻¹; that for G7U U30G G63U, less than 1e-05 s⁻¹.
For the variant A14G U54C C68G, the “self-cleavage kobs at 640 uM GlcN6P” value in series [1] is 0.000112 ± 3e-05 s⁻¹. In addition, in series [2], the “self-cleavage kobs at 2500 uM GlcN6P” value stood at 7.7e-05 ± 1.8e-05 s⁻¹.
As to U31G G35U A36G U47A A64G C68U C71G, the “self-cleavage kobs at 640 uM GlcN6P” value in series [1] came out at 9.41e-05 ± 3.3e-05 s⁻¹.
G21U C70G: the “self-cleavage kobs at 640 uM GlcN6P” value in series [1] came to 0.000253 ± 5.1e-05 s⁻¹. For the same variant, in series [2], the “self-cleavage kobs at 2500 uM GlcN6P” value was 0.000154 ± 3.9e-05 s⁻¹. Further, the “self-cleavage kobs at 10000 uM GlcN6P” value in series [3] is 9.23e-05 ± 2.3e-05 s⁻¹.
With G41U U46G A48C U49C, in series [1], the “self-cleavage kobs at 640 uM GlcN6P” value was less than 1e-05 s⁻¹.
Turning to C10G G13A G43A C50U, the “self-cleavage kobs at 640 uM GlcN6P” value in series [1] was less than 1e-05 s⁻¹. Also, the “self-cleavage kobs at 2500 uM GlcN6P” value in series [2] is less than 1e-05 s⁻¹. In addition, the “self-cleavage kobs at 10000 uM GlcN6P” value in series [3] is less than 1e-05 s⁻¹.
As for C50G U65G U69A, the “self-cleavage kobs at 640 uM GlcN6P” value in series [1] is 0.000101 ± 2.1e-05 s⁻¹.
Consider A36G G37C U46C, for which the “self-cleavage kobs at 640 uM GlcN6P” value in series [1] is less than 1e-05 s⁻¹. Further, the “self-cleavage kobs at 2500 uM GlcN6P” value in series [2] is less than 1e-05 s⁻¹.
With C16A G38U U47A, the “self-cleavage kobs at 640 uM GlcN6P” value in series [1] is less than 1e-05 s⁻¹.
Regarding U47C U49G C50U, the “self-cleavage kobs at 640 uM GlcN6P” value in series [1] is less than 1e-05 s⁻¹. The “self-cleavage kobs at 2500 uM GlcN6P” value in series [2] was less than 1e-05 s⁻¹.
As to C8G C10G A12U A14G G43A C58U, in series [1], the “self-cleavage kobs at 640 uM GlcN6P” value is less than 1e-05 s⁻¹.
Still for that read-out and setting: under C61G C68U U69A stands less than 1e-05 s⁻¹.
